The values that follow come from patent publication US20250051821.

Changes are numbered by the printed parent chain.

This series addresses T1, IFF05588.
T1 chain: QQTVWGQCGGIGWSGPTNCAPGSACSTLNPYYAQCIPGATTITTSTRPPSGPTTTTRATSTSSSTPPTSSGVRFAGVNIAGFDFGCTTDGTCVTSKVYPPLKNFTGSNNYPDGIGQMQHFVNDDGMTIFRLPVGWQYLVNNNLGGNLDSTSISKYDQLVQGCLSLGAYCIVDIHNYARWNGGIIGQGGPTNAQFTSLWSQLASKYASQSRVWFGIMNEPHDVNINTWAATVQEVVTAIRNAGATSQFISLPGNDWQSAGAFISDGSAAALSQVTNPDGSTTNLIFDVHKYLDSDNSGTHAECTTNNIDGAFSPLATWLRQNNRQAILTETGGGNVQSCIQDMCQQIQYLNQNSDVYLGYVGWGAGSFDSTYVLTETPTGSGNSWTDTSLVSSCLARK

B1: IFF21360 (protein)
chain: RLDKPVIKPPFPNGGGLGSLGPDLMSSLPIAAHTTSDWDSDHLPRDCKRLAQSAGFSPLDVDAFNIRFDDCKQQPWVFCRHKDAPLSKSNMTELFGRLPVRMRQYIRHIIALPGQRSAGSAGDNIQMNGDCEITVFIHETGHSLDSHAFDPKHGVPFSNSPVWKDAYDKDTAVTDDYAQTSQQENFAQETVVAVYDKNVKGGGIGKIQPNAQAIRNAYTTLEKYIGDIIIPGGECTHRLENSPAVPKVDSARTRLVAKSEPVGEGLTRIEPIPMGPITLARY
In the case of B1, the Relative late peak area (centered, scaled, averaged over 5, 10 and 15 min) is -0.58; the Relative late peak area (centered, scaled, averaged over doses, 24 h; sample diluted 1-fold) turned out to be 0.62; the Relative late peak area (reverse phase chromatography, 24 h) is 0.66.

B2: IFF21333 (protein)
chain: RLDKPIINPTFPGGGLDSLAQGLLDHLAPTQSTHDNWGAGYIPEDCKNLAKSNGFSPFDITPFNIHYSDCNDVWIFCRHKDSPLSQIDMIDLFGRMPVHMREYIRHVIALPGNKSAGSSGDNIQMNGAVGITVFVHETGHSLDSHGFDPKYGVPFSNSKTWLDNYNMDTAVCDSYAQSSQQENLAQETVVGLYDKVVPGGVGNIQPNWKAIFHQYATVQGYLGDILTPGGTCRHRLANSKPVPMGDSAKFRRDLGPAPDVSLSSDVIEIESIPMGSSIRITEFDEAGNPIGSKNVSLVM
Consider B2, for which the Relative late peak area (centered, scaled, averaged over 5, 10 and 15 min) is 0.26; the Relative late peak area (centered, scaled, averaged over doses, 24 h; sample diluted 2-fold) amounted to 0.69; the Relative late peak area (reverse phase chromatography, 24 h) was 0.59.

B3: IFF21343 (protein)
chain: NLDKPVIQPNFPGNGLASLGQGLMDHLAPTHSTWDDWGAGWIPQDCKSMAQGAGFSANDIIPFNIHYDDCAQSWTFCRHKNSPLSELQILDIFGRLPVRMRSFVRHLVFVPGNKSAGSNGDNVLMVGAVDVTVFAHEIGHSLDSHAFDPSYGVPFSTGSVWTSNYNLDSAVPDPYAQTSQQENFAQETVVSLYDKVVPGGIGTIQPNWKAIFHQYATLQGYIGNVIIPGGTCTHRLTDSPPVTMSSAKLRRGLGPKPNVSLSPKVKEIESIPMESSITMTSFDEHGKPNGTYVVHLK
For the protein B3, the Relative late peak area (centered, scaled, averaged over 5, 10 and 15 min) was found to be 0.33; the Relative late peak area (centered, scaled, averaged over doses, 24 h; sample diluted 2-fold) was 0.8.

B4: IFF21354 (protein)
chain: RLDKPVIKPPFPNGGLGSLGPDLMSSLKVASHTTDDWDKNHLPRDCKSLAQNAGFSPLDVSAFNIHYDDCKSQPWVFCRHKDSPLSKKDMTELFGRMPVRMRQFIRHIIALPGQRSAGSSGDNIQMNGDVEITVFIHETGHSLDSHAFDPKLGAPFSNGKAWTDAYNKDSAVTDDYAQTSQQENFAQETVVSVYDKNVKGGIGKIQPNAQAIRNAYTTLEKYIGNIIIPGGVCTHRLENSPSVPKADSARTRLVPKSEPVGEGLTRIEPIAMGPITPASY
Regarding B4, the Relative late peak area (centered, scaled, averaged over 5, 10 and 15 min) was 1.34; the Relative late peak area (centered, scaled, averaged over doses, 24 h; sample diluted 10-fold) was 0.87; the Relative late peak area (reverse phase chromatography, 24 h) was 0.67.

B5: IFF21334 (protein)
chain: ILDKPVIQPNFPGNGLASLGQGLMDNLSPTHSTWDDWGAGWIPQDCKSLVEGAGFSASDVIPFNIHYDDCAQTWTFCRHKDSPLSEITILDIFGRLPVRMRSFVRHLVFIPGNKSAGSSGDNVLMVGAVDVTVFAHEIGHSLDSHAFDPSYGVPFSTGNVWISNYNLDSAVTDPYAQTSQQENFAQETVVSLYDKVVPGGIGTIQPNWQAIYHQYATLEGYIGDVIIPGGTCTHRLTDSPPVQMSSSSKLRRALGPKPHVALSPEVEEIEAIPMKSSITMTSFDAAGKPNGTYVINL
With B5, the Relative late peak area (centered, scaled, averaged over 5, 10 and 15 min) is 1.38; the Relative late peak area (centered, scaled, averaged over doses, 24 h; sample diluted 10-fold) is 0.97; the Relative late peak area (reverse phase chromatography, 24 h) is 0.65.

B6: IFF21351 (protein)
chain: ALNKPVIQPNFPGNGLASLGQGIMQHLTPTQSTWDDWGAGWIPQDCKSIVQGAGFSPNDIIPFNIHYTDCGQTWTFCRHKNSPLSEINIIDIFGRLPVRMRQFVRHLVFVPGNKSAGSNGDNILMVGPVDVTVFIHEIGHSLDSHAFDPSYGVPFSTGNVWVSNYNLDSAVPDPYAQSSQQENFAQHTVVSIFDKVVPGGIGTIQPNWQAIFHQYATLEGYIGDTIIPGGTCTHRLTDSPPVTMASKRRGLGPKPKVALSPEVEEIESIPMKSTFKMTSFDEAGKPSGNYVINL
Take B6: the Relative late peak area (centered, scaled, averaged over 5, 10 and 15 min) was -0.57; the Relative late peak area (centered, scaled, averaged over doses, 24 h; sample diluted 1-fold) amounted to 0.66.

B7: IFF21359 (protein)
chain: TLDKPVIKPPFPNGGLGSLGPDLMSSLPIAAHTTTDWDADHLPRDCKTLAQGAGFSPLDVSAFDIHYDDCKAQPWVFCRHKDSPLSKTDMTELFGRLPVRMRQFIRHIIALPGQRSAGSAGDNIQMNGDCEITVFIHETGHSLDSHAFDPKLGVPFSNGKAWTDAYHKDTAVTDDYGRTSQQENFAQETVVSVYDKNVEGGIGKIQPNAQAIRNAYTTLETYIGNIIIPGGECTHRLENSPSVPKADSARTRLVARAEPVGEGLTRIEPVPFGPILSVRY
Turning to B7, the Relative late peak area (centered, scaled, averaged over 5, 10 and 15 min) was found to be 1.3; the Relative late peak area (centered, scaled, averaged over doses, 24 h; sample diluted 10-fold) amounted to 0.61; the Relative late peak area (reverse phase chromatography, 24 h) worked out at 0.68.

B8: IFF21350 (protein)
chain: NLNKPVIQPNFPGNGLASLGQGILDHLAPTQSTWDDWGAGWIPQDCKSLAQGAGLSPNDIIPFNIHYADCAQTWTFCRHKNSPLSEVNIIDLFGRLPVRMRQFVRHLVFIPGNKSAGSNGDNVLMVGPVDITVFAHEIGHSLDSHAFDPSYGVPFSTGNVWVSNYNLDSAVPDPYAQSSQQENFAQHTVISIYDKAVPGGIGTIQPNWQAIFHQYATLEGYIGDIIIPGGTCTHRLTDSPPVTMASKRRALGPKPKVALSPEVEEIEAIPMKNTITMTSFDEAGKPNGSYVINL
Turning to B8, the Relative late peak area (centered, scaled, averaged over 5, 10 and 15 min) was 1.55; the Relative late peak area (centered, scaled, averaged over doses, 24 h; sample diluted 10-fold) came to 1.06; the Relative late peak area (reverse phase chromatography, 24 h) was 0.61.

B9: IFF21348 (protein)
chain: TLNKPVIQPNFPGGGLASLGPGLLNNLAITSSTSDVWGAGWIPADCKSLVQGAGLSPFDVIPFNIHLSDCSQTWTFCRHKNSPLSQTDIINLFARVPVRMRDFIRHFVFIPGATSAGSNGDNTLMVGNVDITVFLHEIGHSLDSHAFDPSYGVPFSTGNVWVSNYNLDSAVTDSYAQTSQQENFAQETVVSVYDKVVPGGIGTIQPNWQAIFHQYATLEGYIGNTIIPGGTCVNRLTDSQPVPMGNSAKFRRTMGPKPTVSLSPDVKEIKAIPMSDSITMTSFDEFGNVNGTYVIQL
On to B9, for which the Relative late peak area (centered, scaled, averaged over 5, 10 and 15 min) turned out to be 1.4; the Relative late peak area (centered, scaled, averaged over doses, 24 h; sample diluted 10-fold) was determined as 0.68.

B10: IFF21332 (protein)
chain: ALNKPIINPQFPNGGLGSLGPGLMQHLQPAKRTWDKWGPGWIPEDCKNLAKSNNFSPFDITPFNIHYEDCPDSWVFCRHKDSPLSETAMIDMFGRMPVKMRSYIRHIIALPGTRSAGSAGDNIQMNGDCEITVFVHETGHSLDSHAFDPKYGAPFSNSKVWLDNYNQDSAVCDGYAQSSQQENLAQETVVGLFDKVVPGGVGTIQPNWKAIFHQYATVQGYLGDQILPGGTCSHRLTNSKPVPMGDSKKSRRGLGPAPDVSLSAHVTEIEPIAMGDSIVLTQYNDGGDAISKREVTLN
B10: the Relative late peak area (centered, scaled, averaged over 5, 10 and 15 min) stood at 0.3; the Relative late peak area (centered, scaled, averaged over doses, 24 h; sample diluted 2-fold) worked out at 0.8; the Relative late peak area (reverse phase chromatography, 24 h) was found to be 0.65.

B11: IFF21379 (protein)
chain: QLDKPALTSNLDYLLEGNTNNLPRNGGPYWGKWADGLMPADCKSIAESQGLNPTDFEVWDIFYNDCQDGWSFCRHKDSSDSFETLVETFGRVPVRMRSWVRHILTIPGPNWAFNSNGNIALSGTTSSNLDVALHETAHSLDLLGAYGNGALSSMQEWLNAYNRDSHVPDEYARSNQVENVAQNTVVAIYDKVVPGGFPGIQPNYQRIQNQYTLVQAKAGNQILPGGTCDRHLENSDTVPMSGLSLAYKLDSEKSRGVWHDSAFKGTYMNIVKEFTPFNTQEFHH
For B11, the Relative late peak area (centered, scaled, averaged over 5, 10 and 15 min) was -0.02; the Relative late peak area (centered, scaled, averaged over doses, 24 h; sample diluted 2-fold) came to 0.75; the Relative late peak area (reverse phase chromatography, 24 h) stood at 0.45.

B12: IFF21342 (protein)
chain: NLNKPVITPNFPGNGLASLGQGLMDHLAPTHSTWDDWGAGWIPADCKSMVQGAGFSPNDIIPFNIHYDDCAQSWTFCRHKNSPLSEIQILDIFGRLPVRMRQFVRHLVFVPGNKSAGSNGDNVLMVGDVDVTVFAHEIGHSLDSHAFDPSYGVPFSTGNVWVSNYNLDSAVPDPYAQSSQQENFAQETVVSLYDKVVPGGIGTIQPNWQAIFHQYATLEGYIGNVIIPGGTCTHRLTDSPPVTMSGSKKSRRALGPKPKVSLSPKVKEIEAIPMESSITMTSFDEHGRPNGTYVINL
For B12, the Relative late peak area (centered, scaled, averaged over 5, 10 and 15 min) came to 0.12; the Relative late peak area (centered, scaled, averaged over doses, 24 h; sample diluted 2-fold) was 0.73.

B13: IFF21341 (protein)
chain: B12 chain with Q21P, D25N, H26N, A44S, P240A, R288K, I295V, N296H
Turning to B13, the Relative late peak area (centered, scaled, averaged over 5, 10 and 15 min) turned out to be 1.03; the Relative late peak area (centered, scaled, averaged over doses, 24 h; sample diluted 10-fold) came out at 0.62.
